# Laboratory results: patent US20180339017A1 (Merck Sharp & Dohme, published 2018)
# No end group written: not given here.
# Key:
# [1] = molecular target: human GLP-1 receptor (human, UniProt P43220 24-463); assay: cell-based or functional assay
# [2] = molecular target: human glucagon receptor (human, UniProt P47871 26-477); assay: cell-based or functional assay
# human glucagon receptor, sequence (P47871 26-477): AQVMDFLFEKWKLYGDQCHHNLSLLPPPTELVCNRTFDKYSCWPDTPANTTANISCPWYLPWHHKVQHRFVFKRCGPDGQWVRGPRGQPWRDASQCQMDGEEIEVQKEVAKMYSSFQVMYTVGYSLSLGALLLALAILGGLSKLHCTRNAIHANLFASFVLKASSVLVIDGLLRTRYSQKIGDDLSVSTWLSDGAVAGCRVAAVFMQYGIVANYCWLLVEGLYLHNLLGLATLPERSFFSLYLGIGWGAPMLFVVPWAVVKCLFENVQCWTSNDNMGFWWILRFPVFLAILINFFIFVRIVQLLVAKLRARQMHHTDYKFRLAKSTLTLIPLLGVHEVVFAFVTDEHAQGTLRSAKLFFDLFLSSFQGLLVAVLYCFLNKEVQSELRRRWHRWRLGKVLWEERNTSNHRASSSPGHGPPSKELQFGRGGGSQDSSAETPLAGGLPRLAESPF
EC50 hGLP1R (cAMP activity assay) [1] [nM],EC50 hGCGR (cAMP activity assay) [2] [nM],Binder
0.02,0.03,HSQGIFFSDYSKYLDSRRAQDFVQWLMNT-NH2 [PD52]
0.05,0.08,HSQGTFTSDYSKYLDSRMAYDFVQWLMNT-NH2 [PD56]
0.03,0.05,HSQGTFTSDYSKYLDELRAYDFVQWLMNT-NH2 [PD27]
0.01,0.02,HSQGTFTSDYSKYLDSRRAQDFVQWLLDS-NH2 [PD59]
0.02,0.03,HSQGTFFSDYSKYLDSRRAQDFVQWLLET-NH2 [PD58]
0.02,0.03,HSQGTFTSDYSKYLDSKRAHDFVQWLLNT-NH2 [PD45]
0.02,0.04,HSQGTFTSDYSKYLDARRAQDFVQWLIRT-NH2 [PD25]
0.02,0.03,HSHGTFTSDYSKYLDSRRAQDFVQWLMTT-NH2 [PD51]
0.02,0.07,HSQGTFTSDYSKYLDSRRAQDFVDWLLNA-NH2 [PD48]
0.05,0.03,HSQGTFTSDYSKYLDWRRAQDFVQWLLNT-NH2 [PD23]
0.01,0.02,HSQGTFTSDYSKYLDWRRAQDFVQWLQNT-NH2 [PD44]
0.01,0.01,HSQGTFTSDYSKYLDMQRAHDFVQWLMNT-NH2 [PD55]
0.06,0.04,HSQGTFTSDYSKYLDSIRAQDFVQWLMDT-NH2 [PD36]
0.04,0.06,HSQGTFTSDYSKYLDSRRAQDFVQWLINY-NH2 [PD31]
0.01,0.02,HSQGTFTSDYSKYLDSRRAQDFVDWLINS-NH2 [PD50]
0.01,0.02,HSQGTFTSDYSKYLDSRRAQDFVQWLLNQ-NH2 [PD57]
0.04,0.03,HSQGTFFSDYSHWLDSRRAQDFVQWLMNT-NH2 [PD43]
0.03,0.02,HSQGTFTSDYSKYLDSLMAQDFVQWLMST-NH2 [PD22]
